Data as given in PMC12136220.

Biological target: human recombinant Hsp60 (human), P10809
Test: cryo-EM structure; purified LAP mixed with Hsp60 at 2:1, incubated 4 h at 4°C; Titan Krios 300 kV with K3 detector, cryoSPARC; LAP-Hsp60 map refined in C1, Hsp60 alone in C7, LAP dimer in C2
Settings: remark: other sources report otherwise

B1: human recombinant Hsp60, P10809 27-573 (natural protein)
chain: AKDVKFGADARALMLQGVDLLADAVAVTMGPKGRTVIIEQSWGSPKVTKDGVTVAKSIDLKDKYKNIGAKLVQDVANNTNEEAGDGTTTATVLARSIAKEGFEKISKGANPVEIRRGVMLAVDAVIAELKKQSKPVTTPEEIAQVATISANGDKEIGNIISDAMKKVGRKGVITVKDGKTLNDELEIIEGMKFDRGYISPYFINTSKGQKCEFQDAYVLLSEKKISSIQSIVPALEIANAHRKPLVIIAEDVDGEALSTLVLNRLKVGLQVVAVKAPGFGDNRKNQLKDMAIATGGAVFGEEGLTLNLEDVQPHDLGKVGEVIVTKDDAMLLKGKGDKAQIEKRIQEIIEQLDVTTSEYEKEKLNERLAKLSDGVAVLKVGGTSDVEVNEKKDRVTDALNATRAAVEEGIVLGGGCALLRCIPALDSLTPANEDQKIGIEIIKRTLKIPAMTIAKNAGVEGSLIVEKIMQSSSEVGYDAMAGDFVNMVEKGIIDPTKVVRTALLDAAGVASLLTTAEVVVTEIPKEEKDPGMGAMGGMGGGMGGGMF
  stoichiometry N: 7
